Results published in the Human Domainome abundance scans (Beltran et al. 2025).
± gives the uncertainty stated by the source.

B1: Lysine-specific demethylase 5C, residues 319 to 373; numbered along this chain, P41229 (parent)
chain: AQFIESYVCRMCSRGDEDDKLLLCDGCDDNYHIFCLLPPLPEIPKGVWRCPKCVM

Variants of: B1
Assay: abundance fitness (aPCA) (normalised: wild type 0, dead -1); higher = more abundant; growth selection in yeast, the domain comes from the species named
Conditions: Homo sapiens
E17P gave an abundance fitness of -0.1 ± 0.14.
E17N gave an abundance fitness of 0.257 ± 0.22.
E17W showed an abundance fitness of -0.176 ± 0.16.
E17F showed an abundance fitness of -0.062 ± 0.23.
E17T showed an abundance fitness of 0.087 ± 0.14.
In the case of E17G, the abundance fitness is reported as 0.023 ± 0.091.
E17Q gave an abundance fitness of -0.064 ± 0.12.
With E17D the abundance fitness was 0.078 ± 0.13.
Work on E17H yielded an abundance fitness of -0.245 ± 0.23.
For E17V, the abundance fitness was 0.22 ± 0.11.
For E17I, the abundance fitness was -0.052 ± 0.21.
Variant E17A has an abundance fitness of 0.123 ± 0.11.
E17K showed an abundance fitness of -0.122 ± 0.16.
With E17Y the abundance fitness was -0.285 ± 0.24.
With E17S the abundance fitness was -0.052 ± 0.1.
E17C gave an abundance fitness of 0.261 ± 0.19.
For Y31T, the abundance fitness was -0.678 ± 0.16.
In the case of Y31W, the abundance fitness is reported as -0.364 ± 0.14.
Y31P showed an abundance fitness of -0.776 ± 0.24.
Y31S gave an abundance fitness of -0.93 ± 0.19.
For Y31E, the abundance fitness was -0.538 ± 0.14.
With Y31L the abundance fitness was -0.589 ± 0.12.
Y31Q gave an abundance fitness of -0.727 ± 0.14.
For Y31R, the abundance fitness was -0.641 ± 0.11.
With Y31D the abundance fitness was -0.776 ± 0.18.
Work on Y31V yielded an abundance fitness of -0.113 ± 0.079.
In the case of Y31A, the abundance fitness is reported as -0.476 ± 0.095.
Y31M gave an abundance fitness of -0.074 ± 0.24.
Y31N gave an abundance fitness of -0.679 ± 0.28.
Variant Y31C has an abundance fitness of -0.514 ± 0.22.
Y31I showed an abundance fitness of -0.261 ± 0.27.
Y31F showed an abundance fitness of -0.163 ± 0.14.
With Y31K the abundance fitness was -0.702 ± 0.14.
With H32P the abundance fitness was -0.853 ± 0.23.
Variant H32N has an abundance fitness of -0.672 ± 0.3.
Work on H32F yielded an abundance fitness of -0.697 ± 0.22.
In the case of H32G, the abundance fitness is reported as -1.01 ± 0.19.
Work on H32T yielded an abundance fitness of -0.898 ± 0.21.
H32V gave an abundance fitness of -0.723 ± 0.11.
H32K gave an abundance fitness of -0.97 ± 0.23.
For H32C, the abundance fitness was -0.677 ± 0.16.
In the case of H32I, the abundance fitness is reported as -0.859 ± 0.23.
H32A gave an abundance fitness of -0.756 ± 0.17.
H32Y showed an abundance fitness of -0.972 ± 0.25.
For H32W, the abundance fitness was -0.881 ± 0.18.
Work on H32R yielded an abundance fitness of -0.675 ± 0.11.
Variant H32Q has an abundance fitness of -0.756 ± 0.22.
H32M gave an abundance fitness of -1.02 ± 0.16.
H32E gave an abundance fitness of -0.945 ± 0.21.
With H32S the abundance fitness was -0.984 ± 0.17.
Variant D19A has an abundance fitness of 0.063 ± 0.1.
D19Y showed an abundance fitness of -0.335 ± 0.13.
D19K showed an abundance fitness of 0.064 ± 0.094.
In the case of D19E, the abundance fitness is reported as -0.091 ± 0.16.
Variant D19G has an abundance fitness of 0.08 ± 0.1.
D19C gave an abundance fitness of 0.019 ± 0.11.
Work on D19P yielded an abundance fitness of -0.15 ± 0.098.
In the case of D19R, the abundance fitness is reported as -0.03 ± 0.081.
With D19H the abundance fitness was -0.032 ± 0.098.
D19W gave an abundance fitness of -0.146 ± 0.098.
D19T gave an abundance fitness of 0.242 ± 0.097.
Work on D19L yielded an abundance fitness of -0.162 ± 0.07.
D19Q gave an abundance fitness of -0.014 ± 0.13.
With D19F the abundance fitness was -0.103 ± 0.1.
With D19I the abundance fitness was -0.198 ± 0.16.
D19N showed an abundance fitness of 0.04 ± 0.1.
D19V showed an abundance fitness of -0.102 ± 0.086.
With D19M the abundance fitness was -0.254 ± 0.1.
With D19S the abundance fitness was -0.089 ± 0.072.
In the case of G26M, the abundance fitness is reported as -0.178 ± 0.17.
G26N showed an abundance fitness of -0.105 ± 0.2.
G26A showed an abundance fitness of 0.161 ± 0.13.
In the case of G26K, the abundance fitness is reported as 0.133 ± 0.14.
With G26S the abundance fitness was -0.159 ± 0.11.
G26P showed an abundance fitness of -0.799 ± 0.28.
Variant G26V has an abundance fitness of -0.217 ± 0.12.
Work on G26L yielded an abundance fitness of -0.071 ± 0.1.
For G26H, the abundance fitness was 0.092 ± 0.17.
Variant G26D has an abundance fitness of -0.034 ± 0.16.
For G26C, the abundance fitness was 0.017 ± 0.25.
G26Y showed an abundance fitness of -0.341 ± 0.22.
For G26F, the abundance fitness was -0.047 ± 0.16.
Work on G26W yielded an abundance fitness of -0.375 ± 0.2.
With G26Q the abundance fitness was -0.129 ± 0.17.
For G26T, the abundance fitness was 0.004 ± 0.16.
With G26I the abundance fitness was -0.21 ± 0.18.
With D18W the abundance fitness was 0.035 ± 0.1.
D18M showed an abundance fitness of 0.107 ± 0.11.
D18T gave an abundance fitness of -0.065 ± 0.12.
Work on D18A yielded an abundance fitness of 0.112 ± 0.087.
D18E showed an abundance fitness of 0.042 ± 0.092.
Variant D18F has an abundance fitness of 0.157 ± 0.14.
Variant D18C has an abundance fitness of -0.178 ± 0.18.
D18Y gave an abundance fitness of -0.284 ± 0.16.
In the case of D18P, the abundance fitness is reported as 0.176 ± 0.09.
D18R gave an abundance fitness of 0.087 ± 0.083.
Variant D18L has an abundance fitness of 0.052 ± 0.078.
In the case of D18Q, the abundance fitness is reported as 0.224 ± 0.11.
Variant D18I has an abundance fitness of 0.125 ± 0.14.
Variant D18G has an abundance fitness of 0.183 ± 0.076.
In the case of D18K, the abundance fitness is reported as 0.184 ± 0.097.
Work on D18H yielded an abundance fitness of 0.324 ± 0.18.
For D18S, the abundance fitness was 0.028 ± 0.093.
D18V gave an abundance fitness of 0.034 ± 0.078.
Work on D18N yielded an abundance fitness of -0.087 ± 0.18.
Variant F34D has an abundance fitness of -0.149 ± 0.17.
F34Q showed an abundance fitness of -0.053 ± 0.21.
For F34R, the abundance fitness was 0.067 ± 0.11.
Work on F34V yielded an abundance fitness of -0.078 ± 0.1.
F34N showed an abundance fitness of 0.095 ± 0.23.
F34H gave an abundance fitness of -0.135 ± 0.18.
Work on F34W yielded an abundance fitness of -0.087 ± 0.15.
In the case of F34E, the abundance fitness is reported as 0.021 ± 0.13.
Work on F34L yielded an abundance fitness of -0.157 ± 0.11.
For F34T, the abundance fitness was 0.039 ± 0.14.
For F34A, the abundance fitness was -0.162 ± 0.1.
F34Y gave an abundance fitness of 0.191 ± 0.16.
Variant F34G has an abundance fitness of 0.046 ± 0.11.
F34K showed an abundance fitness of 0.28 ± 0.13.
In the case of F34S, the abundance fitness is reported as -0.029 ± 0.11.
For F34P, the abundance fitness was -0.291 ± 0.15.
F34M showed an abundance fitness of -0.165 ± 0.18.
D28K gave an abundance fitness of -0.516 ± 0.41.
D28T showed an abundance fitness of -0.494 ± 0.26.
For D28V, the abundance fitness was -0.527 ± 0.17.
Variant D28I has an abundance fitness of 0.327 ± 0.39.
Work on D28C yielded an abundance fitness of -0.359 ± 0.32.
In the case of D28M, the abundance fitness is reported as -0.411 ± 0.32.
For D28L, the abundance fitness was -0.294 ± 0.18.
In the case of D28S, the abundance fitness is reported as 0.148 ± 0.14.
With D28R the abundance fitness was 0.225 ± 0.13.
Work on D28E yielded an abundance fitness of -0.102 ± 0.32.
D28W showed an abundance fitness of -0.244 ± 0.21.
In the case of D28A, the abundance fitness is reported as 0.092 ± 0.16.
D28N gave an abundance fitness of 0.046 ± 0.19.
For D28P, the abundance fitness was 0.259 ± 0.21.
L23S showed an abundance fitness of 0.148 ± 0.084.
L23G gave an abundance fitness of -0.086 ± 0.093.
In the case of L23I, the abundance fitness is reported as -0.156 ± 0.14.
Variant L23N has an abundance fitness of 0.099 ± 0.11.
With L23W the abundance fitness was -0.224 ± 0.12.
L23R gave an abundance fitness of 0.166 ± 0.065.
Work on L23Y yielded an abundance fitness of -0.141 ± 0.24.
L23E gave an abundance fitness of -0.078 ± 0.13.
Variant L23P has an abundance fitness of -0.017 ± 0.13.
In the case of L23D, the abundance fitness is reported as 0.084 ± 0.16.
L23M gave an abundance fitness of 0.235 ± 0.085.
In the case of L23F, the abundance fitness is reported as -0.405 ± 0.27.
Work on L23A yielded an abundance fitness of 0.044 ± 0.1.
For L23T, the abundance fitness was 0.094 ± 0.082.
With L23Q the abundance fitness was -0.073 ± 0.14.
For L23H, the abundance fitness was -0.302 ± 0.28.
L23C gave an abundance fitness of -0.122 ± 0.14.
L23K showed an abundance fitness of 0.169 ± 0.1.
In the case of G15W, the abundance fitness is reported as -0.169 ± 0.12.
Work on G15E yielded an abundance fitness of 0.049 ± 0.12.
With G15K the abundance fitness was 0.086 ± 0.089.
G15V showed an abundance fitness of -0.025 ± 0.096.
Variant G15A has an abundance fitness of -0.037 ± 0.084.
With G15S the abundance fitness was 0.155 ± 0.066.
For G15F, the abundance fitness was -0.008 ± 0.1.
Work on G15R yielded an abundance fitness of 0.035 ± 0.075.
G15Y gave an abundance fitness of -0.027 ± 0.11.
G15H showed an abundance fitness of -0.391 ± 0.14.
Variant G15Q has an abundance fitness of -0.124 ± 0.086.
G15T gave an abundance fitness of 0.029 ± 0.076.
G15L showed an abundance fitness of -0.113 ± 0.064.
